The text below walks through data of patent publication US20200317768A1 (published 2020).

In assay [1] the target is T1, human FcγRIIaH extracellular domain, C-terminal His-tag (human, UniProt P12318 34-217).
T1 construct: also called human FcγRIIa (type H); FcgRIIaH; not shown: His-tag added to C-terminus
T1 sequence: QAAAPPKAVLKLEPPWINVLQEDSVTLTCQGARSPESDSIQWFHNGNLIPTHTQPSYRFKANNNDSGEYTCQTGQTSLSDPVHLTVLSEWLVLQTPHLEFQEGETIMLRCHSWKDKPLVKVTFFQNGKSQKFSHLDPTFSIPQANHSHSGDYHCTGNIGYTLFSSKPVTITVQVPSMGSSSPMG
The experiment in a line: SPR (Biacore), antibody captured, FcgR analyte, 25 C. On the technique in general: SPR reads the build-up and loss of mass on a sensor chip optically.

The target in assay [2] is T2, cynomolgus monkey FcγRIIa2 extracellular domain, C-terminal His-tag (cynomolgus monkey).
T2 construct: also called cyno FcγRIIa2; cynoFcgRIIa2; not shown: His-tag added to C-terminus
T2 chain: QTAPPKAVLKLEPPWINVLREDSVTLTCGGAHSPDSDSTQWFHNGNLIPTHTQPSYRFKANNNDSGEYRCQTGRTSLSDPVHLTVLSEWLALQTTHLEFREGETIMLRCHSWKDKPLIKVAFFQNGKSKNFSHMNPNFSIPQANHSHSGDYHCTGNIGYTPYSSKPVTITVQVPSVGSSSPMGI
The experiment in a line: SPR (Biacore), KD of SG1 / KD of variant.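 Further: relative to parent M103205H795-SG1 carrying the SG1 human heavy chain constant region.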 As to the method:
(§1) The kinetic analysis of interactions between these antibodies and FcγR was carried out using BIACORE® T200 or BIACORE® 4000 (GE Healthcare). HBS-EP+ (GE Healthcare) was used as the running buffer, and the measurement temperature was set to 25° C. A chip produced by immobilizing Protein A. Protein A/G or mouse anti-human IgG kappa light chain (BD Biosciences) onto a Series S Sensor Chip CM4 or CM5 (GE Healthcare) by the amine-coupling method was used. […] After the measurement, the antibody captured on the chip was washed off by allowing reaction with 10 mM glycine-HCl, pH1.5 and 25 mM NaOH so that the chip was regenerated and used repeatedly. The sensorgrams obtained as measurement results were analyzed by the 1:1 Langmuir binding model using the BIACORE® Evaluation Software to calculate the binding rate constant ka (L/mol/s) and dissociation rate constant kd (l/s), and the dissociation constant KD (mol/L) was calculated from these values. […] Regarding such interactions, KD values were calculated using the following 1:1 binding model described in BIACORE® T100 Software Handbook BR1006-48 Edition AE.
(§2) The behavior of interacting molecules according to the 1:1 binding model on BIACORE® can be described by Equation 1: Req=C·R max/(KD+C)+RI, wherein, Req is a plot of steady-state binding levels to analyte concentration. C is concentration, RI is bulk refractive index contribution in the sample, and Rmax is analyte binding capacity of the surface. When this equation is rearranged, KD can be expressed as Equation 2: KD=C·Rmax/(Req−RI)−C. KD can be calculated by substituting the values of Rmax, RI, and C into Equation 1 or Equation 2. From the current measurement conditions, RI=0, C=2 μmol/L can be used.

Assay [3] addresses T3, human FcγRIIIaV extracellular domain, C-terminal His-tag (human, UniProt P08637 17-208).
T3 construct: also called FcgRIIIaV; not shown: His-tag added to C-terminus
The experiment in a line: SPR (Biacore), KD of SG1 / KD of variant.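 Further: relative to parent M103205H795-SG1 carrying the SG1 human heavy chain constant region.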 As to the method:
as §1, §2

Assay [4] addresses T1, human FcγRIIaH extracellular domain, …. The experiment in a line: SPR (Biacore), KD of SG1 / KD of variant.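 Further: relative to parent M103205H795-SG1 carrying the SG1 human heavy chain constant region.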 As to the method:
as §1, §2

The target in assay [5] is T4, cynomolgus monkey FcγRIIIaS extracellular domain, C-terminal His-tag (cynomolgus monkey, UniProt A3RFZ7 21-206 (rhesus entry)).
T4 construct: also called cyno FcγRIIIaS; cynoFcγRIIIaS; not shown: His-tag added to C-terminus
T4 sequence (A3RFZ7 21-206): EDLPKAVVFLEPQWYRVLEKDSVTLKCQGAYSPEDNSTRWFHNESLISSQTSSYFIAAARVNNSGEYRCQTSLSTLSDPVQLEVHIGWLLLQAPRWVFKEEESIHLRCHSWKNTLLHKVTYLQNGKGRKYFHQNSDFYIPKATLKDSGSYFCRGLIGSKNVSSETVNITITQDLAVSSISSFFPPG
Nature of the assay: SPR (Biacore), KD of SG1 / KD of variant.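 Further: relative to parent M103205H795-SG1 carrying the SG1 human heavy chain constant region.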 On the procedure: as §1, §2

In assay [6] the target is T5, cynomolgus monkey FcγRIIa3 extracellular domain, C-terminal His-tag (cynomolgus monkey).
T5 construct: also called cyno FcγRIIa3; cynoFcgRIIa3; not shown: His-tag added to C-terminus
T5 chain: T2 chain with K127I, N130K, H133P, Q142R
Nature of the assay: SPR (Biacore), KD of SG1 / KD of variant. On the procedure: as §1, §2

The target of assay [7] is T6, human FcγRIIaR extracellular domain, C-terminal His-tag (human, UniProt P12318 34-217).
T6 construct: also called human FcγRIIa (type R); FcgRIIaR; not shown: His-tag added to C-terminus
T6 chain: T1 sequence with H134R
Nature of the assay: SPR (Biacore), KD of SG1 / KD of variant. On the procedure: as §1, §2

Assay [8] addresses T7, cynomolgus monkey FcγRIIb extracellular domain, C-terminal His-tag (cynomolgus monkey).
T7 construct: also called cyno FcγRIIb; cynoFcγRIIb; not shown: His-tag added to C-terminus
T7 chain: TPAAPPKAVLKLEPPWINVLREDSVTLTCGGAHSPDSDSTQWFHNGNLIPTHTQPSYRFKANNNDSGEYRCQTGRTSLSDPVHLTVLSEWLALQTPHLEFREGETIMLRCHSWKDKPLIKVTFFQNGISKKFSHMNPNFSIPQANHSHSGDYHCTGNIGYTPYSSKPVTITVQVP
The experiment in a line: SPR (Biacore), KD of SG1 / KD of variant. On the procedure:
as §1, §2

For assay [9], the target named is T8, human FcγRIIb extracellular domain, C-terminal His-tag (human, UniProt P31994 43-217).
T8 construct: also called FcgRIIb (human); not shown: His-tag added to C-terminus
T8 sequence: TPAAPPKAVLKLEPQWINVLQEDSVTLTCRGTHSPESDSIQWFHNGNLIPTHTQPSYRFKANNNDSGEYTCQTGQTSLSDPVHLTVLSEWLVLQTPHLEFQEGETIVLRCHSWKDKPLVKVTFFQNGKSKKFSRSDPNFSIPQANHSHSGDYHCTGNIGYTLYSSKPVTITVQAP
The experiment in a line: SPR (Biacore), KD of SG1 / KD of variant. On the procedure:
as §1, §2

A word on the Kd: it is the constant that tells how readily two partners part at equilibrium.

Residue numbers refer to the chain shown, from its start.

T3 sequence (P08637 17-208 F176V): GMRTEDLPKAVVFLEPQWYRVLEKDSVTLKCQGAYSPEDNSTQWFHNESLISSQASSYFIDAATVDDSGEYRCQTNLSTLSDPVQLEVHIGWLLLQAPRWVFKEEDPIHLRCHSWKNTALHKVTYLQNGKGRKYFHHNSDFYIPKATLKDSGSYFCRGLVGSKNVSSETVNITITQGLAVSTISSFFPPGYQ

B1: MS_M103205H795-SG1/M103202L889-SK1 (antibody, human IgG1, kappa)
heavy: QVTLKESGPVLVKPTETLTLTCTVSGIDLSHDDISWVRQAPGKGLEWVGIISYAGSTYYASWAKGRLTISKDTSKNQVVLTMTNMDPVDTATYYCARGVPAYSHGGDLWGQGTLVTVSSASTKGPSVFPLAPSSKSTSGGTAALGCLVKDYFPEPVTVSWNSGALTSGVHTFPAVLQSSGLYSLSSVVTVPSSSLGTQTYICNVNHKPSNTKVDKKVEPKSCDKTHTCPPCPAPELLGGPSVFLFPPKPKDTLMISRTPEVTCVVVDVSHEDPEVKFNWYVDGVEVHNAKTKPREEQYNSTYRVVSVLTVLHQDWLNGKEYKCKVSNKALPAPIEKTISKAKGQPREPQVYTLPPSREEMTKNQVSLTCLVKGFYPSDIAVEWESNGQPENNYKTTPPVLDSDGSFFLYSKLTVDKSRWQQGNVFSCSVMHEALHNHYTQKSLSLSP
light: DIVMTQSPATLSLSPGERATLSCTSSQSVYHANWLSWFQQKPGQPPKLLIYWASTLAYGVPSRFSGSGSGTDFTLTISSLQPEDAATYYCAGGYGGGRYAFGQGTKVEIKRTVAAPSVFIFPPSDEQLKSGTASVVCLLNNFYPREAKVQWKVDNALQSGNSQESVTEQDSKDSTYSLSSTLTLSKADYEKHKVYACEVTHQGLSSPVTKSFNRGEC
notes: Parent antibody; also called MS1032LO06-SG1
With B1, the Kd in assay [1] was 690 nM. The “KD fold (SG1 = 1)” value in [2], in assay [3], in [4], in assay [5], in assay [6] and in [7] was 1 fold in each case. In addition, the “KD fold (SG1 = 1)” value in assay [8] and in [9] was 1 fold each time.

B2: M103205H795-MY143/M103202L889-SK1 (antibody, human IgG1, kappa)
heavy: QVTLKESGPVLVKPTETLTLTCTVSGIDLSHDDISWVRQAPGKGLEWVGIISYAGSTYYASWAKGRLTISKDTSKNQVVLTMTNMDPVDTATYYCARGVPAYSHGGDLWGQGTLVTVSSASTKGPSVFPLAPSSKSTSGGTAALGCLVKDYFPEPVTVSWNSGALTSGVHTFPAVLQSSGLYSLSSVVTVPSSSLGTQTYICNVNHKPSNTKVDKKVEPKSCDKTHTCPPCPAPELLSGPSVFLFPPKPKDTLMISRTPEVTCVVVDVSEEDPEVKFNWYVDGVEVHNAKTKPREEQYNSTYRVVSVLTVLHQDWLNGKEYKCKVSNKALPAPIEKTISKAKGQPREPQVYTLPPSREEMTKNQVSLTCLVKGFYPSDIAVEWESNGQPENNYKTTPMVLDSDGSFFLYSKLTVDKSRWQQGNVFSCSVMHEALHNHYTQKSLSLSP
light: B1 light
For B2, binding in assay [1] was put at a Kd of 37 nM. Also, the “KD fold (SG1 = 1)” value in assay [2] was determined as 3.9 fold; in assay [3] it was 0.52 fold; in assay [4], 18.6 fold; in assay [5], 1.29 fold; in assay [6], 5.9 fold; in assay [7], 13.3 fold. For the same molecule, the figures for the “KD fold (SG1 = 1)” value in [8] and in [9] were 8.9 fold and 6.3 fold, respectively.

B3: M103205H795-MY280/M103202L889-SK1 (antibody, human IgG1, kappa)
heavy: B2 heavy with S238V, E270D, Q297L, A332K, M398P
light: B1 light
B3 had a Kd in [1] of 81 nM. Moreover, the “KD fold (SG1 = 1)” value in assay [2] was 4.3 fold; in assay [3] it was 0.18 fold; in assay [4], 8.5 fold; in [5] it was 0.2 fold; in assay [7] it was 2.4 fold; in assay [8] it was 5.5 fold. In addition, in assay [9], the “KD fold (SG1 = 1)” value came to 1.6 fold.

B4: M103205H795-MY142/M103202L889-SK1 (antibody, human IgG1, kappa)
heavy: B2 heavy with S238E
light: B1 light
The molecule B4 yielded a Kd in assay [1] of 190 nM. Further, the “KD fold (SG1 = 1)” value in assay [2] turned out to be 1 fold; in assay [3], 1.4 fold; in assay [4], 3.6 fold; in [5] it was 2.57 fold; in assay [6], 0.7 fold; in assay [7], 6.5 fold. Moreover, the entries for the “KD fold (SG1 = 1)” value in [8] and in [9] were 1 fold and 4.8 fold, respectively.

B5: M103205H795-MY213/M103202L889-SK1 (antibody, human IgG1, kappa)
heavy: B2 heavy with S238N, E270D, A332K, M398K
light: B1 light
With B5, in assay [1], the Kd is 350 nM. In addition, the “KD fold (SG1 = 1)” value was found to be 9.6 fold in assay [2]; 0.03 fold in assay [3]; 2 fold in [4]; 0.19 fold in assay [5]; 13.1 fold in [6]; 1.6 fold in assay [7]. The “KD fold (SG1 = 1)” value in [8] amounted to 11.9 fold; in assay [9], 12.8 fold.

B6: M103205H795-MY219/M103202L889-SK1 (antibody, human IgG1, kappa)
heavy: B2 heavy with S238G, G239Y, E270D, A332K, M398P
light: B1 light
For B6, the Kd in assay [1] worked out at 2300 nM. Also, the “KD fold (SG1 = 1)” value in assay [2] is 1.3 fold; in [3], 0.03 fold; in [4], 0.2 fold; in assay [5] it was 0.06 fold; in assay [6], 3.1 fold; in [7] it was 6.9 fold. The results for the “KD fold (SG1 = 1)” value in [8] and in assay [9] were 1.4 fold and 13.5 fold, respectively.

B7: M103205H795-MY209/M103202L889-SK1 (antibody, human IgG1, kappa)
heavy: B2 heavy with S238N, E270D, Q297L, K328T, A332K, M398P
light: B1 light
For B7, the Kd in assay [1] is 570 nM. For the same molecule, the “KD fold (SG1 = 1)” value worked out at 7.4 fold in assay [2]; 0.06 fold in assay [3]; 1.2 fold in assay [4]; 0.16 fold in [5]; 8.9 fold in [6]; 1.3 fold in assay [7]. The “KD fold (SG1 = 1)” value turned out to be 9.5 fold in assay [8] and 9.2 fold in assay [9].
